The data set concerns the molecule itself. Description: SEC-MALS. On the technique in general: In gel filtration, larger molecules generally elute earlier.

B1: MBP-EBOV NP 1-367 (domain or fragment)
chain: MDSRPQKIWMAPSLTESDMDYHKILTAGLSVQQGIVRQRVIPVYQVNNLEEICQLIIQAFEAGVDFQESADSFLLMLCLHHAYQGDYKLFLESGAVKYLEGHGFRFEVKKRDGVKRLEELLPAVSSGKNIKRTLAAMPEEETTEANAGQFLSFASLFLPKLVVGEKACLEKVQRQIQVHAEQGLIQYPTAWQSVGHMMVIFRLMRTNFLIKFLLIHQGMHMVAGHDANDAVISNSVAQARFSGLLIVKTVLDHILQKTERGVRLHPLARTAKVKNEVNSFKAALSSLAKHGEYAPFARLLNLSGVNNLEHGLFPQLSAIALGVATAHGSTLAGVNVGEQYQQLREAATEAEKQLQQYAESRELDHLG
Take B1: the binding result is “binds”.

(Values after paper PMC4500542 (Cell reports, 2015).)
